B1: HipB antitoxin, wild type (natural protein, E. coli, UniProt P23873 1-88, looked up)
chain: MMSFQKIYSPTQLANAMKLVRQQNGWTQSELAKKIGIKQATISNFENNPDNTTLTTFFKILQSLELSMTLCDAKNASPESTEQQNLEW
notes: HipB, antitoxin and repressor of the hipBA operon of Escherichia coli, 88 residues; also called HipB WT; pET15b-HipB; source: E. coli BL21(DE3)pLysS, purified (Ni-NTA)
B4: HipA toxin (wild type HipA protein) (enzyme, E. coli, UniProt P23874 1-440, looked up)
chain: MPKLVTWMNNQRVGELTKLANGAHTFKYAPEWLASRYARPLSLSLPLQRGNITSDAVFNFFDNLLPDSPIVRDRIVKRYHAKSRQPFDLLSEIGRDSVGAVTLIPEDETVTHPIMAWEKLTEARLEEVLTAYKADIPLGMIREENDFRISVAGAQEKTALLRIGNDWCIPKGITPTTHIIKLPIGEIRQPNATLDLSQSVDNEYYCLLLAKELGLNVPDAEIIKAGNVRALAVERFDRRWNAERTVLLRLPQEDMCQTFGLPSSVKYESDGGPGIARIMAFLMGSSEALKDRYDFMKFQVFQWLIGATDGHAKNFSVFIQAGGSYRLTPFYDIISAFPVLGGTGIHISDLKLAMGLNASKGKKTAIDKIYPRHFLATAKVLRFPEVQMHEILSDFARMIPAALDNVKTSLPTDFPENVVTAVESNVLRLHGRLSREYGSK

How the values were obtained:
[1] = molecular target: B4; assay: fluorescence polarisation; HipA titrated into 50 nM HipB (or HipB(W88A), HipB72) pre-incubated 2 min with 1 nM 5'-6-carboxyfluorescein-labelled hipBA O1O2 DNA; 20 mM Tris-HCl pH 7.5, 100 mM NaCl, 5% glycerol; 10 °C; the affinity is formally between HipA and HipB bound to the DNA; settings: both partners purified
HipA;HipB = molecular target: T1, HipA;HipB (Escherichia coli;Escherichia coli, UniProt P23874;P23873 1-440;1-88, |); assay: fluorescence polarization; HipA titrated into DNA saturated with 50 nM HipB; Kd is formally HipA for DNA-bound HipB; 20 mM Tris-HCl pH 7.5, 100 mM NaCl, 5% glycerol, 10 C, 1 nM labeled DNA; settings: protein: recombinant;recombinant; tags: His6 (Ni-NTA purified, pET28a);His6 (Ni-NTA purified, pET15b); chain copies: 2;4; label: 5'-6-carboxyfluorescein on top strand; blunt
T1 sequence 1: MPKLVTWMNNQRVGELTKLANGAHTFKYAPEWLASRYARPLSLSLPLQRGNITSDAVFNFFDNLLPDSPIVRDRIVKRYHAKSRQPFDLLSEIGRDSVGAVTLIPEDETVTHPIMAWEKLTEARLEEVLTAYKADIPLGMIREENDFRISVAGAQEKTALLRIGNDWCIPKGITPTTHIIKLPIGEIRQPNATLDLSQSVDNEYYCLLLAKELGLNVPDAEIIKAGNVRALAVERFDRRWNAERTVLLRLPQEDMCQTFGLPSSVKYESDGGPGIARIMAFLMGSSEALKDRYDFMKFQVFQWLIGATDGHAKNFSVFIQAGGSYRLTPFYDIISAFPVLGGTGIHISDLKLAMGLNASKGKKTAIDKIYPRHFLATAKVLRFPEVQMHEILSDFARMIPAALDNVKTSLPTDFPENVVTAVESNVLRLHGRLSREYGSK
T1 sequence 2: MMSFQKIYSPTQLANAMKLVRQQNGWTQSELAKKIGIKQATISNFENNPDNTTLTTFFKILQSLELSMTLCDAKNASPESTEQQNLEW

HipB72 = molecular target: T2, HipB72 (Escherichia coli, UniProt P23873 1-72, del73-88); assay: fluorescence polarization; 1 nM DNA; 20 mM Tris-HCl pH 7.5, 100 mM NaCl, 5% glycerol, 10 C, 1 nM labeled DNA; settings: protein: recombinant; tags: His6 (Ni-NTA purified); chain copies: 2; label: 5'-6-carboxyfluorescein on top strand; blunt
T2 sequence: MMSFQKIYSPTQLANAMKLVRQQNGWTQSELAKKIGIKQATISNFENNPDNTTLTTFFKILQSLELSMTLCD

HipB = molecular target: T3, HipB (Escherichia coli, UniProt P23873 1-88); assay: as above; settings: protein: recombinant; tags: His6 (Ni-NTA purified, pET15b); chain copies: 2; label: 5'-6-carboxyfluorescein on top strand; blunt
T3 sequence: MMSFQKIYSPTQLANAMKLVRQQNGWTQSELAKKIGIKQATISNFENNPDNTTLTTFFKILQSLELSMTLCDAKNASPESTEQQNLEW

HipB(W88A) = molecular target: T4, HipB(W88A) (Escherichia coli, UniProt P23873 1-88, W88A); assay: as above; settings: protein: recombinant; tags: His6 (Ni-NTA purified); chain copies: 2; label: 5'-6-carboxyfluorescein on top strand; blunt
T4 sequence: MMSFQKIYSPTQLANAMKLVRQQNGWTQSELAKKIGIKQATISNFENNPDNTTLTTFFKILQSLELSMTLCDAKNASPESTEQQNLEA

[2] = molecular target: B1; assay: cell-based or functional assay
[3] = molecular target: B4; assay: fluorescence polarisation; HipA titrated into 50 nM HipB (or HipB(W88A), HipB72) pre-incubated 2 min with 1 nM 5'-6-carboxyfluorescein-labelled hipBA O1O2 DNA; 20 mM Tris-HCl pH 7.5, 100 mM NaCl, 5% glycerol; 10 °C; the affinity is formally between HipA and HipB bound to the DNA; settings: both partners purified; remark: listed apart in the source

B1
Kd [1]: 1000 ± 600 nM

B2: HipB(W88A) (natural protein, E. coli, UniProt P23873 1-88, looked up)
chain: MMSFQKIYSPTQLANAMKLVRQQNGWTQSELAKKIGIKQATISNFENNPDNTTLTTFFKILQSLELSMTLCDAKNASPESTEQQNLEA
notes: HipB of Escherichia coli with the C-terminal tryptophan 88 changed to alanine, made by site-directed mutagenesis in pET15b-hipB; Strain KLE911; also called HipB(W88A) protein; pET15b-hipB w88a; source: E. coli BL21(DE3)pLysS, purified (Ni-NTA)
Kd [1]: 1200 ± 300 nM

B3: hipBA O1O2 operator (dsDNA)
DNA 1: TTATCCGCTTAAGGGGATATTATAAGTTTTATCCTTTAGTGAGGATAA
DNA 2: TTATCCTCACTAAAGGATAAAACTTATAATATCCCCTTAAGCGGATAA
Kd (HipA;HipB): 1000 ± 600 nM
Kd (HipB72): 0.4 ± 0.1 nM
Kd (HipB): 0.6 ± 0.1 nM
Kd (HipB(W88A)): 0.9 ± 0.4 nM

B4
half-life of His6-HipB (0.48 µM) in the in vitro degradation assay with His6-Lon (0.6 µM) when purified His6-HipA (0.48 µM) is added, against lysozyme as control protein [2]: > 3.33 h

B5: HipB72 (C-terminal truncation of HipB lacking the last 16 residues) (domain or fragment, E. coli, UniProt P23873 1-72, looked up)
chain: MMSFQKIYSPTQLANAMKLVRQQNGWTQSELAKKIGIKQATISNFENNPDNTTLTTFFKILQSLELSMTLCD
notes: Strain KLE912; also called HipB72 C-terminal truncation protein; pET15b-hipB72; source: E. coli BL21(DE3)pLysS, purified (Ni-NTA)
binding result [3]: binds

Source: publication PMC3376134, “Regulation of the Escherichia coli HipBA Toxin-Antitoxin System by Proteolysis” (PLoS ONE, 2012)
